Measurements published in patent US20230407373A1 (priority 2020, published 2023).

B1: PCBP2 (protein, UniProt Q15366 1-365, looked up)
Poly(rC)-binding protein 2: MDTGVIEGGLNVTLTIRLLMHGKEVGSIIGKKGESVKKMREESGARINISEGNCPERIITLAGPTNAIFKAFAMIIDKLEEDISSSMTNSTAASRPPVTLRLVVPASQCGSLIGKGGCKIKEIRESTGAQVQVAGDMLPNSTERAITIAGIPQSIIECVKQICVVMLETLSQSPPKGVTIPYRPKPSSSPVIFAGGQDRYSTGSDSASFPHTTPSMCLNPDLEGPPLEAYTIQGQYAIPQPDLTKLHQLAMQQSHFPMTHGNTGFSGIESSSPEVKGYWGLDASAQTTSHELTIPNDLIGCIIGRQGAKINEIRQMSGAQIKIANPVEGSTDRQVTITGSAASISLAQYLINVRLSSETGGMGSS
B2: ACLY (protein, UniProt P53396 1-1101, looked up)
ATP-citrate synthase: MSAKAISEQTGKELLYKFICTTSAIQNRFKYARVTPDTDWARLLQDHPWLLSQNLVVKPDQLIKRRGKLGLVGVNLTLDGVKSWLKPRLGQEATVGKATGFLKNFLIEPFVPHSQAEEFYVCIYATREGDYVLFHHEGGVDVGDVDAKAQKLLVGVDEKLNPEDIKKHLLVHAPEDKKEILASFISGLFNFYEDLYFTYLEINPLVVTKDGVYVLDLAAKVDATADYICKVKWGDIEFPPPFGREAYPEEAYIADLDAKSGASLKLTLLNPKGRIWTMVAGGGASVVYSDTICDLGGVNELANYGEYSGAPSEQQTYDYAKTILSLMTREKHPDGKILIIGGSIANFTNVAATFKGIVRAIRDYQGPLKEHEVTIFVRRGGPNYQEGLRVMGEVGKTTGIPIHVFGTETHMTAIVGMALGHRPIPNQPPTAAHTANFLLNASGSTSTPAPSRTASFSESRADEVAPAKKAKPAMPQDSVPSPRSLQGKSTTLFSRHTKAIVWGMQTRAVQGMLDFDYVCSRDEPSVAAMVYPFTGDHKQKFYWGHKEILIPVFKNMADAMRKHPEVDVLINFASLRSAYDSTMETMNYAQIRTIAIIAEGIPEALTRKLIKKADQKGVTIIGPATVGGIKPGCFKIGNTGGMLDNILASKLYRPGSVAYVSRSGGMSNELNNIISRTTDGVYEGVAIGGDRYPGSTFMDHVLRYQDTPGVKMIVVLGEIGGTEEYKICRGIKEGRLTKPIVCWCIGTCATMFSSEVQFGHAGACANQASETAVAKNQALKEAGVFVPRSFDELGEIIQSVYEDLVANGVIVPAQEVPPPTVPMDYSWARELGLIRKPASFMTSICDERGQELIYAGMPITEVFKEEMGIGGVLGLLWFQKRLPKYSCQFIEMCLMVTADHGPAVSGAHNTIICARAGKDLVSSLTSGLLTIGDRFGGALDAAAKMFSKAFDSGIIPMEFVNKMKKEGKLIMGIGHRVKSINNPDMRVQILKDYVRQHFPATPLLDYALEVEKITTSKKPNLILNVDGLIGVAFVDMLRNCGSFTREEADEYIDIGALNGIFVLGRSMGFIGHYLDQKRLKQGLYRHPWDDISYVLPEHMSM
B3: RBMS2 (protein, UniProt Q15434 1-407, looked up)
RNA-binding motif, …: MLLSVTSRPGISTFGYNRNNKKPYVSLAQQMAPPSPSNSTPNSSSGSNGNDQLSKTNLYIRGLQPGTTDQDLVKLCQPYGKIVSTKAILDKTTNKCKGYGFVDFDSPSAAQKAVTALKASGVQAQMAKQQEQDPTNLYISNLPLSMDEQELEGMLKPFGQVISTRILRDTSGTSRGVGFARMESTEKCEAIITHFNGKYIKTPPGVPAPSDPLLCKFADGGPKKRQNQGKFVQNGRAWPRNADMGVMALTYDPTTALQNGFYPAPYNITPNRMLAQSALSPYLSSPVSSYQRVTQTSPLQVPNPSWMHHHSYLMQPSGSVLTPGMDHPISLQPASMMGPLTQQLGHLSLSSTGTYMPTAAAMQGAYISQYTPVPSSSVSVEESSGQQNQVAVDAPSEHGVYSFQFNK
B4: HNRNPA3 (protein, UniProt P51991 1-378, looked up)
Heterogeneous nuclear …: MEVKPPPGRPQPDSGRRRRRRGEEGHDPKEPEQLRKLFIGGLSFETTDDSLREHFEKWGTLTDCVVMRDPQTKRSRGFGFVTYSCVEEVDAAMCARPHKVDGRVVEPKRAVSREDSVKPGAHLTVKKIFVGGIKEDTEEYNLRDYFEKYGKIETIEVMEDRQSGKKRGFAFVTFDDHDTVDKIVVQKYHTINGHNCEVKKALSKQEMQSAGSQRGRGGGSGNFMGRGGNFGGGGGNFGRGGNFGGRGGYGGGGGGSRGSYGGGDGGYNGFGGDGGNYGGGPGYSSRGGYGGGGPGYGNQGGGYGGGGGYDGYNEGGNFGGGNYGGGGNYNDFGNYSGQQQSNYGPMKGGSFGGRSSGSPYGGGYGSGGGSGGYGSRRF
B5: ZC3H7A: host protein, UniProt Q8IWRD (protein, UniProt Q8IWR0 1-971, looked up)
Zinc finger CCCH …: MSNVSEERRKRQQNIKEGLQFIQSPLSYPGTQEQYAVYLRALVRNLFNEGNDVYREHDWNNSISQYTEALNIADYAKSEEILIPKEIIEKLYINRIACYSNMGFHDKVLEDCNIVLSLNASNCKALYRKSKALSDLGRYKKAYDAVAKCSLAVPQDEHVIKLTQELAQKLGFKIRKAYVRAELSLKSVPGDGATKALNHSVEDIEPDLLTPRQEAVPVVSLPAPSFSHEVGSELASVPVMPLTSILPLQVEESALPSAVLANGGKMPFTMPEAFLDDGDMVLGDELDDLLDSAPETNETVMPSALVRGPLQTASVSPSMPFSASLLGTLPIGARYAPPPSFSEFYPPLTSSLEDFCSSLNSFSMSESKRDLSTSTSREGTPLNNSNSSLLLMNGPGSLFASENFLGISSQPRNDFGNFFGSAVTKPSSSVTPRHPLEGTHELRQACQICFVKSGPKLMDFTYHANIDHKCKKDILIGRIKNVEDKSWKKIRPRPTKTNYEGPYYICKDVAAEEECRYSGHCTFAYCQEEIDVWTLERKGAFSREAFFGGNGKINLTVFKLLQEHLGEFIFLCEKCFDHKPRMISKRNKDNSTACSHPVTKHEFEDNKCLVHILRETTVKYSKIRSFHGQCQLDLCRHEVRYGCLREDECFYAHSLVELKVWIMQNETGISHDAIAQESKRYWQNLEANVPGAQVLGNQIMPGFLNMKIKFVCAQCLRNGQVIEPDKNRKYCSAKARHSWTKDRRAMRVMSIERKKWMNIRPLPTKKQMPLQFDLCNHIASGKKCQYVGNCSFAHSPEEREVWTYMKENGIQDMEQFYELWLKSQKNEKSEDIASQSNKENGKQIHMPTDYAEVTVDFHCWMCGKNCNSEKQWQGHISSEKHKEKVFHTEDDQYCWQHRFPTGYFSICDRYMNGTCPEGNSCKFAHGNAELHEWEERRDALKMKLNKARKDHLIGPNDNDFGKYSFLFKDLN
B6: ATXN2 (protein, UniProt Q99700 1-1313, looked up)
Ataxin-2: MRSAAAAPRSPAVATESRRFAAARWPGWRSLQRPARRSGRGGGGAAPGPYPSAAPPPPGPGPPPSRQSSPPSASDCFGSNGNGGGAFRPGSRRLLGLGGPPRPFVVLLLPLASPGAPPAAPTRASPLGARASPPRSGVSLARPAPGCPRPACEPVYGPLTMSLKPQQQQQQQQQQQQQQQQQQQQQQQPPPAAANVRKPGGSGLLASPAAAPSPSSSSVSSSSATAPSSVVAATSGGGRPGLGRGRNSNKGLPQSTISFDGIYANMRMVHILTSVVGSKCEVQVKNGGIYEGVFKTYSPKCDLVLDAAHEKSTESSSGPKREEIMESILFKCSDFVVVQFKDMDSSYAKRDAFTDSAISAKVNGEHKEKDLEPWDAGELTANEELEALENDVSNGWDPNDMFRYNEENYGVVSTYDSSLSSYTVPLERDNSEEFLKREARANQLAEEIESSAQYKARVALENDDRSEEEKYTAVQRNSSEREGHSINTRENKYIPPGQRNREVISWGSGRQNSPRMGQPGSGSMPSRSTSHTSDFNPNSGSDQRVVNGGVPWPSPCPSPSSRPPSRYQSGPNSLPPRAATPTRPPSRPPSRPSRPPSHPSAHGSPAPVSTMPKRMSSEGPPRMSPKAQRHPRNHRVSAGRGSISSGLEFVSHNPPSEAATPPVARTSPSGGTWSSVVSGVPRLSPKTHRPRSPRQNSIGNTPSGPVLASPQAGIIPTEAVAMPIPAASPTPASPASNRAVTPSSEAKDSRLQDQRQNSPAGNKENIKPNETSPSFSKAENKGISPVVSEHRKQIDDLKKFKNDFRLQPSSTSESMDQLLNKNREGEKSRDLIKDKIEPSAKDSFIENSSSNCTSGSSKPNSPSISPSILSNTEHKRGPEVTSQGVQTSSPACKQEKDDKEEKKDAAEQVRKSTLNPNAKEFNPRSFSQPKPSTTPTSPRPQAQPSPSMVGHQQPTPVYTQPVCFAPNMMYPVPVSPGVQPLYPIPMTPMPVNQAKTYRAVPNMPQQRQDQHHQSAMMHPASAAGPPIAATPPAYSTQYVAYSPQQFPNQPLVQHVPHYQSQHPHVYSPVIQGNARMMAPPTHAQPGLVSSSATQYGAHEQTHAMYACPKLPYNKETSPSFYFAISTGSLAQQYAHPNATLHPHTPHPQPSATPTGQQQSQHGGSHPAPSPVQHHQHQAAQALHLASPQQQSAIYHAGLAPTPPSMTPASNTQSPQNSFPAAQQTVFTIHPSHVQPAYTNPPHMAHVPQAHVQSGMVPSHPTAHAPMMLMTTQPPGGPQAALAQSALQPIPVSTTAHFPYMTHPSVQAHHQQQL
B7: SPATS2 (protein, UniProt Q86XZ4 1-545, looked up)
Spermatogenesis-associated …: MSRKQNQKDSSGFIFDLQSNTVLAQGGAFENMKEKINAVRAIVPNKSNNEIILVLQHFDNCVDKTVQAFMEGSASEVLKEWTVTGKKKNKKKKNKPKPAAEPSNGIPDSSKSVSIQEEQSAPSSEKGGMNGYHVNGAINDTESVDSLSEGLETLSIDARELEDPESAMLDTLDRTGSMLQNGVSDFETKSLTMHSIHNSQQPRNAAKSLSRPTTETQFSNMGMEDVPLATSKKLSSNIEKSVKDLQRCTVSLARYRVVVKEEMDASIKKMKQAFAELESCLMDREVALLAEMDKVKAEAMEILLSRQKKAELLKKMTHVAVQMSEQQLVELRADIKHFVSERKYDEDLGRVARFTCDVETLKKSIDSFGQVSHPKNSYSTRSRCSSVTSVSLSSPSDASAASSSTCASPPSLTSANKKNFAPGETPAAIANSSGQPYQPLREVLPGNRRGGQGYRPQGQKSNDPMNQGRHDSMGRYRNSSWYSSGSRYQSAPSQAPGNTIERGQTHSAGTNGTGVSMEPSPPTPSFKKGLPQRKPRTSQTEAVNS

What was measured:
[1] = test system: SARS-CoV-2 gRNA and sgRNAs; type: binding; settings: for background (unweighted spectral count in control): no-probe control pull-down, used as background for Probe II; for target (unweighted spectral count of the protein in the RNP capture experiment): LC-MS/MS label-free quantification, probe pool not given; for back-ground (unweighted spectral count of the protein in the control experiment): protein background of the control (e.g. no-probe) experiment; for target (unweighted spectral count in RNP capture): Probe II capture, LC-MS/MS LFQ
HCoV-OC43 gRNA and sgRNA = type: binding; settings: for target (unweighted spectral count): OC43 Probe II, 24 hpi (type n_24_v), infected cells; for target (unweighted spectral count) / target (unweighted spectral count, OC43 Probe II capture): tested against no-probe control; for target (unweighted spectral count, OC43 Probe II capture): type n_36_v, FDR<10%; for target (unweighted spectral count, OC43 Probe II) / background (unweighted spectral count, no-probe control): type n_48_v, 48 hpi; for target (unweighted spectral count, OC43 Probe II): OC43 Probe II capture on infected cells; for background (unweighted spectral count, no-probe control): no-probe control on infected cells

Molecule	background (unweighted spectral count in control) [1]	target (unweighted spectral count) (HCoV-OC43 gRNA and sgRNA)	target (unweighted spectral count of the protein in the RNP capture experiment) [1]	back-ground (unweighted spectral count of the protein in the control experiment) [1]	target (unweighted spectral count in RNP capture) [1]	target (unweighted spectral count, OC43 Probe II capture) (HCoV-OC43 gRNA and sgRNA; 36 hpi)	target (unweighted spectral count, OC43 Probe II) (HCoV-OC43 gRNA and sgRNA)	background (unweighted spectral count, no-probe control) (HCoV-OC43 gRNA and sgRNA)	target (spectral count) (HCoV-OC43 gRNA and sgRNA; type s_36_m, HCoV-OC43-infected HCT-8 cells, 36 hpi, Probe II)	background (spectral count) (HCoV-OC43 gRNA and sgRNA; type s_36_m, uninfected-probe control, 36 hpi, Probe II)
B1	1	10								
B2			6	1						
B3	1				14	4				
B4	1	22			51	25				
B5	1	8			14	9	9	1	9	1
B6	1				22	4	6	1		
B7			5	1						
